Target: CCR5L (designed (synthetic))
Assay: MST; 100 uM ZnCl2; MST: 20 mM Tris-HCl pH 7.5, 200 mM NaCl, 0.01% Tween-20, 100 uM ZnCl2, 0.1 mM TCEP; TZAP arrays: 20 mM Tris-HCl pH 7.0, 50 mM NaCl, 0.1% Tween-20, 100 uM ZnCl2, 0.1 mM TCEP; temperature not stated
Conditions: protein: recombinant; tags: His-SUMO cleaved by Ulp1; Cy5-maleimide on terminal Cys; hairpin

Chain of CCR5L (designed (synthetic)) (chain, as listed by the source): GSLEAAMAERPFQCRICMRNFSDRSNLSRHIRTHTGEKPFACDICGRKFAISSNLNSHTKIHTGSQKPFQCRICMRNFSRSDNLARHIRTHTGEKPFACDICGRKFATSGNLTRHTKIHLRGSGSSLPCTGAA

B1: ccr5l-wt (structured_DNA)
DNA: GGCTTCCGCTGTCATCCTCATCAGGTTTTCCTGATGAGGATGACAGCGGAAGCC
Kd: 5.7 nM
